B1: 66B02_SO (VHH)
VHH: EVQLVESGGGSVQPGGSLRLSCAASGSIFSSTAMAWYRQAPGKRRDLVAAINTVGVTKYADSVKGRFTISRDNAKNTVYLQMNSLRPEDTALYYCTSDPRRGWDTRYWGQGTLVTVSS
notes: Monovalent anti-CX3CR1 ISVD; The oligomerization and Tagg assays used a 3xFLAG-His6 tagged form made in E. coli
B2: 54A12_SO (VHH)
VHH: EVQLVESGGGSVQPGGSLRLSCAASGSIFSSTAMAWYRQAPGKQRDLVAVISTVGITKYADSVKGRFTISRDNAKNTVYLQMNSLRPEDTALYYCTSDARRGWDTRYWGQGTLVTVSS
notes: as for B1
B3: A041600042 (VHH)
chain: DVQLVESGGGSVQPGGSLRLSCAASGSIFSSTAMAWYRQAPGKRRDLVAAINTVGVTKYADSVKGRFTISRDNAKNTVYLQMNSLRPEDTALYYCTSDPRRGWDTRYWGQGTLVTVSSGGGGSGGGGSGGGGSGGGGSEVQLVESGGGSVQPGGSLRLSCAASGSIFSSTAMAWYRQAPGKRRDLVAAINTVGVTKYADSVKGRFTISRDNAKNTVYLQMNSLRPEDTALYYCTSDPRRGWDTRYWGQGTLVTVSSGGGGSGGGGSGGGGSGGGGSEVQLVESGGGVVQPGGSLRLSCAASGFTFRSFGMSWVRQAPGKGPEWVSSISGSGSDTLYADSVKGRFTISRDNSKNTLYLQMNSLRPEDTALYYCTIGGSLSRSSQGTLVTVSSA
notes: Trivalent ISVD construct (two anti-CX3CR1 ISVDs, one anti-albumin ISVD), C-terminal alanine included in the entry; also called 66B02_SO (E1D)-20GS-66B02_SO-20GS-ALB23002-A
B4: A041600026 (VHH)
chain: DVQLVESGGGSVQPGGSLRLSCAASGSIFSSTAMAWYRQAPGKRRDLVAAINTVGVTKYADSVKGRFTISRDNAKNTVYLQMNSLRPEDTALYYCTSDPRRGWDTRYWGQGTLVTVSSGGGGSGGGGSGGGGSGGGGSEVQLVESGGGVVQPGGSLRLSCAASGFTFRSFGMSWVRQAPGKGPEWVSSISGSGSDTLYADSVKGRFTISRDNSKNTLYLQMNSLRPEDTALYYCTIGGSLSRSSQGTLVTVSSGGGGSGGGGSGGGGSGGGGSEVQLVESGGGSVQPGGSLRLSCAASGSIFSSTAMAWYRQAPGKRRDLVAAINTVGVTKYADSVKGRFTISRDNAKNTVYLQMNSLRPEDTALYYCTSDPRRGWDTRYWGQGTLVTVSSA
notes: Trivalent ISVD construct; also called 66B02_SO (E1D)-20GS-ALB23002-20GS-66B02_SO-A
B5: A041600011 (VHH)
chain: DVQLVESGGGSVQPGGSLRLSCAASGSIFSSTAMAWYRQAPGKRRDLVAAINTVGVTKYADSVKGRFTISRDNAKNTVYLQMNSLRPEDTALYYCTSDPRRGWDTRYWGQGTLVTVSSGGGGSGGGSEVQLVESGGGSVQPGGSLRLSCAASGSIFSSTAMAWYRQAPGKRRDLVAAINTVGVTKYADSVKGRFTISRDNAKNTVYLQMNSLRPEDTALYYCTSDPRRGWDTRYWGQGTLVTVSSGGGGSGGGSEVQLVESGGGVVQPGGSLRLSCAASGFTFRSFGMSWVRQAPGKGPEWVSSISGSGSDTLYADSVKGRFTISRDNSKNTLYLQMNSLRPEDTALYYCTIGGSLSRSSQGTLVTVSSA
notes: Trivalent ISVD construct (two anti-CX3CR1 ISVDs, one anti-albumin ISVD), C-terminal alanine included in the entry; also called 66B02_SO (E1D)-9GS-66B02_SO-9GS-ALB23002-A
B6: A041600040 (VHH)
chain: DVQLVESGGGSVQPGGSLRLSCAASGSIFSSTAMAWYRQAPGKRRDLVAAINTVGVTKYADSVKGRFTISRDNAKNTVYLQMNSLRPEDTALYYCTSDPRRGWDTRYWGQGTLVTVSSGGGGSGGGSEVQLVESGGGSVQPGGSLRLSCAASGSIFSSTAMAWYRQAPGKQRDLVAVISTVGITKYADSVKGRFTISRDNAKNTVYLQMNSLRPEDTALYYCTSDARRGWDTRYWGQGTLVTVSSGGGGSGGGSEVQLVESGGGVVQPGGSLRLSCAASGFTFRSFGMSWVRQAPGKGPEWVSSISGSGSDTLYADSVKGRFTISRDNSKNTLYLQMNSLRPEDTALYYCTIGGSLSRSSQGTLVTVSSA
notes: Trivalent ISVD construct (two anti-CX3CR1 ISVDs, one anti-albumin ISVD), C-terminal alanine included in the entry; also called 66B02_SO (E1D)-9GS-54A12_SO-9GS-ALB23002-A
B7: A041600010 (VHH)
chain: DVQLVESGGGSVQPGGSLRLSCAASGSIFSSTAMAWYRQAPGKRRDLVAAINTVGVTKYADSVKGRFTISRDNAKNTVYLQMNSLRPEDTALYYCTSDPRRGWDTRYWGQGTLVTVSSGGGGSGGGSEVQLVESGGGVVQPGGSLRLSCAASGFTFRSFGMSWVRQAPGKGPEWVSSISGSGSDTLYADSVKGRFTISRDNSKNTLYLQMNSLRPEDTALYYCTIGGSLSRSSQGTLVTVSSGGGGSGGGSEVQLVESGGGSVQPGGSLRLSCAASGSIFSSTAMAWYRQAPGKRRDLVAAINTVGVTKYADSVKGRFTISRDNAKNTVYLQMNSLRPEDTALYYCTSDPRRGWDTRYWGQGTLVTVSSA
notes: Trivalent ISVD construct (two anti-CX3CR1 ISVDs, one anti-albumin ISVD); also called 66B02_SO (E1D)-9GS-ALB23002-9GS-66B02_SO-A
B8: A041600031 (VHH)
chain: DVQLVESGGGSVQPGGSLRLSCAASGSIFSSTAMAWYRQAPGKRRDLVAAINTVGVTKYADSVKGRFTISRDNAKNTVYLQMNSLRPEDTALYYCTSDPRRGWDTRYWGQGTLVTVSSGGGGSGGGSEVQLVESGGGVVQPGGSLRLSCAASGFTFRSFGMSWVRQAPGKGPEWVSSISGSGSDTLYADSVKGRFTISRDNSKNTLYLQMNSLRPEDTALYYCTIGGSLSRSSQGTLVTVSSGGGGSGGGSEVQLVESGGGSVQPGGSLRLSCAASGSIFSSTAMAWYRQAPGKQRDLVAVISTVGITKYADSVKGRFTISRDNAKNTVYLQMNSLRPEDTALYYCTSDARRGWDTRYWGQGTLVTVSSA
notes: Trivalent ISVD construct (two anti-CX3CR1 ISVDs, one anti-albumin ISVD), C-terminal alanine included in the entry; also called 66B02_SO (E1D)-9GS-ALB23002-9GS-54A12_SO-A

Tests used:
cynomolgus CX3CR1 [1] = molecular target: T1, cynomolgus CX3CR1 (cynomolgus monkey (Macaca fascicularis), UniProt P49238 1-355 (human entry)); experiment: competition flow cytometry vs huCX3CL1-AF647 (2E-10 M) on CHO K1 cyno CX3CR1 cells, 30 uM HSA
T1 construct: Overexpressed on CHO K1 cells; also called cyno CX3CR1; cyCX3CR1
T1 chain: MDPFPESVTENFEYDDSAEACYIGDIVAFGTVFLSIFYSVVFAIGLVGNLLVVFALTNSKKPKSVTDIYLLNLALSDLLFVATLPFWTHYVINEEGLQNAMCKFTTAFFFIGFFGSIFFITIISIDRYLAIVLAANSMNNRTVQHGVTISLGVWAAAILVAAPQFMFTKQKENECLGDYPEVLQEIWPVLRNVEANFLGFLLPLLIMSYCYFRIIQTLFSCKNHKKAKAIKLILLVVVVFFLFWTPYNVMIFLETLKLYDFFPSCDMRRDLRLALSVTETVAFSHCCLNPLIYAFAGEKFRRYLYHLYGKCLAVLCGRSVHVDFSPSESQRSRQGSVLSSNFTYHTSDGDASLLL
Protocol: (§1) CHO cells overexpressing human or cyno CX3CR1 were generated using techniques known in the art. Cells were harvested and resuspended in assay buffer (PBS, 2% FBS, 0.05% NaN3). The cells were seeded in 384-well Bio-One V-bottom plates (Greiner, Cat. No. 781280), with a total of 2E04 cells seeded per well. After washing, ISVD proteins (starting from 250 nM, 3-fold dilution, 11 points, in assay buffer) were premixed with 30 μM HSA (Sigma-Aldrich, Cat. No. A8763) and human CX3CL1 labelled with AF647 (R&D Systems, Cat. No. 365-FR; labelled in house) at a final concentration of 2E-10 M (˜EC30) and added to the cells for 4 hours at 4° C. Plates were washed 3 times and cells were resuspended in PI (Miltenyi Biotec, Cat. No. 130-093-233, 1000-fold diluted in assay buffer). Cell suspensions were analysed with iQue Screener PLUS or iQue 3(Intellicyt). The IC50s were estimated by dose response modelling. Curves were fit using 4 parameter logistic regression in GraphPad (GraphPad Software Inc.).

human CX3CR1 [2] = molecular target: T2, human CX3CR1 (human, UniProt P49238 1-355); experiment: competition flow cytometry vs huCX3CL1-AF647 (2E-10 M) on CHO K1 human CX3CR1 cells, 30 uM HSA
T2 construct: Overexpressed on CHO K1, Ba/F3 or HEK293T cells; also called huCX3CR1; hCX3CR1
T2 sequence: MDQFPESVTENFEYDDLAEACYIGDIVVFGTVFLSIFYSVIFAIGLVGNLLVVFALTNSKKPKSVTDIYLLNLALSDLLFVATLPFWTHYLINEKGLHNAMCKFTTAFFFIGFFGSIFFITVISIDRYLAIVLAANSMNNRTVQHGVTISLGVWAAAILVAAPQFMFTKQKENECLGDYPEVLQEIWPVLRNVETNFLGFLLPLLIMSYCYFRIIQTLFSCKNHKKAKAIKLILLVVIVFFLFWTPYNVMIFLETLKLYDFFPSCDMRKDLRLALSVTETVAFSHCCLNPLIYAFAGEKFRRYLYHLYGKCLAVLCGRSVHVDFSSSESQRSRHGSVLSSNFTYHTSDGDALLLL
Protocol: as §1

cynomolgus CX3CR1 [3] = molecular target: T1, cynomolgus CX3CR1; experiment: competition flow cytometry vs soluble huCX3CL1-AF647 on CHO K1 cyCX3CR1 cells, 30 uM HSA
cynomolgus CX3CR1 [4] = molecular target: T1, cynomolgus CX3CR1; experiment: flow cytometry on CHO K1 cyCX3CR1 cells, 30 uM HSA
Protocol: (§2) CHO cells overexpressing human or cynomolgus CX3CR1 were generated using techniques known in the art. Cells were harvested and resuspended in assay buffer (PBS, 2% FBS, 0.05% NaN3) and seeded separately in 384-well Bio-One V-bottom plates (Greiner, Cat. No. 781280), with a total of 2E04 cells seeded per well. After washing, serial dilutions of multivalent ISVD construct (starting from 250 nM, 3-fold dilution, 11 points, diluted in assay buffer), were added and incubated for 4 hours at 4° C. Binding was performed in the presence of 30 uM HSA (Sigma-Aldrich, Cat. No. A8763). Plates were then washed 3 times and cells were incubated with an anti-VHH mouse antibody (3300-fold diluted in assay buffer) for 30 minutes at 4′° C. […] Plates were finally washed 3 times and cells were resuspended in PI (Miltenyi Biotec, Cat. No. 130-093-233, 1000-fold diluted in assay buffer). Cell suspensions were analyzed with iQue Screener PLUS (Intellicyt). EC50s were estimated by dose response modelling. Curves were fit using 4 parameter logistic regression in GraphPad (GraphPad Software Inc.). A purified anti-human CX3CR1 antibody [K0124E1] (BioLegend, Cat. No. 355701/355702) was used as positive control to detect CX3CR1 expression on the cell surface.

human CX3CR1 [5] = molecular target: T2, human CX3CR1; experiment: competition flow cytometry vs soluble huCX3CL1-AF647 on CHO K1 huCX3CR1 cells, 30 uM HSA
human CX3CR1 [6] = molecular target: T2, human CX3CR1; experiment: flow cytometry on CHO K1 huCX3CR1 cells, 30 uM HSA
Protocol: as §2

| Binder | IC50 (cynomolgus CX3CR1 [1]) | IC50 (human CX3CR1 [2]) | % inhibition (cynomolgus CX3CR1 [3]) | IC50 (cynomolgus CX3CR1 [3]) | EC50 (cynomolgus CX3CR1 [4]) | top (cynomolgus CX3CR1 [4]) | % inhibition (human CX3CR1 [5]) | IC50 (human CX3CR1 [5]) | EC50 (human CX3CR1 [6]) | top (human CX3CR1 [6]) |
| --- | --- | --- | --- | --- | --- | --- | --- | --- | --- | --- |
| B1 | 2900 pM | 480 pM |  |  |  |  |  |  |  |  |
| B2 | 6000 pM | 890 pM |  |  |  |  |  |  |  |  |
| B3 |  |  | 104% | 670 pM | 120 pM | 373000 | 95% | 1400 pM | 130 pM | 40000 |
| B4 |  |  | 104% | 1200 pM | 250 pM | 290000 | 102% | 1100 pM | 290 pM | 35600 |
| B5 |  |  | 111% | 1200 pM | 110 pM | 331000 | 94% | 660 pM | 79 pM | 44200 |
| B6 |  |  | 117% | 620 pM | 140 pM | 363000 | 101% | 990 pM | 100 pM | 42200 |
| B7 |  |  | 113% | 2400 pM | 460 pM | 214000 | 94% | 3800 pM | 410 pM | 22800 |
| B8 |  |  | 105% | 1200 pM | 320 pM | 300000 | 96% | 2100 pM | 300 pM | 31300 |

Reference: patent US20240117038A1 (Ablynx, published 2024)
